Assay results from PMC13370696, “Anemia‐associated mutations disrupt the CDIN1‐Codanin1 complex in inherited congenital dyserythropoietic anemia I (CDA‐I) disease” (The Febs Journal, 2026).

B1: CDAN1-interacting nuclease 1 (CDIN1), full length, bacterial (natural protein, human, UniProt Q9Y2V0 1-281, looked up)
chain: MILTKAQYDEIAQCLVSVPPTRQSLRKLKQRFPSQSQATLLSIFSQEYQKHIKRTHAKHHTSEAIESYYQRYLNGVVKNGAAPVLLDLANEVDYAPSLMARLILERFLQEHEETPPSKSIINSMLRDPSQIPDGVLANQVYQCIVNDCCYGPLVDCIKHAIGHEHEVLLRDLLLEKNLSFLDEDQLRAKGYDKTPDFILQVPVAVEGHIIHWIESKASFGDECSHHAYLHDQFWSYWNRFGPGLVIYWYGFIQELDCNRERGILLKACFPTNIVTLCHSIA
notes: CDIN1 (C15orf41), human, full length, 281 amino acids; Eluted from the Im7 column by cleavage with His-tagged Ulp1; plasmid pl21 (TriAltus); The anticipated homodimer mass is printed as 67 kDa; Alone in solution it is mainly a homodimer; also called C15orf41
B2: Codanin1 C-terminus (amino acids 1005-1227), labeled with Alexa Fluor 488 (domain or fragment, human, UniProt Q8IWY9 1005-1227, looked up)
chain: AARGERRGCSRACEHHAPLPSHLISEIKDVLSLAVGPRDPDEGVSPEHLEQLLGQLGQTLRCRQFLCPPAEQHLAKCSVELASLLVADQIPILGPPAQYRLERGQARRLLHMLLSLWKEDFQGPVPLQLLLSPRNVGLLADTRPREWDLLLFLLRELVEKGLMGRMEIEACLGSLHQAQWPGDFAEELATLSNLFLAEPHLPEPQLRACELVQPNRGTVLAQS
modifications: Alexa Fluor 488 covalently attached (carboxylic acid, 2,3,5,6-tetrafluorophenyl ester); site not stated; degree of labeling over 90%
notes: Codanin-1 (CDAN1), human, amino acids 1005-1227, codon-optimized for bacterial expression; Same protein as m2, with the dye; also called fluorescently labeled Codanin1_(Cterm); Codanin1_(Cterm) Alexa Fluor 488
B3: Codanin1 C-terminus (amino acids 1005-1227), bacterial (domain or fragment, human, UniProt Q8IWY9 1005-1227, looked up)
chain: B2 chain
notes: Codanin-1 (CDAN1), human, amino acids 1005-1227, codon-optimized for bacterial expression; Eluted from the Im7 column by cleavage with His-tagged Ulp1; plasmid pl21 (TriAltus); Anticipated mass is printed as 25 kDa; also called C-terminal part of Codanin1

How the values were obtained:
[1] = target: B3; assay: AUC; sedimentation velocity, 20 °C, 50 000 rpm; 24 uM CDIN1, 24 uM Codanin1_(Cterm), or 1:1 complex at 12 uM each; 20 mM Tris/HCl, 150 mM NaCl, pH 8.0; conditions: both partners purified
[2] = target: the molecule itself; assay: SEC-MALS; CDIN1 (2 mg/mL), Codanin1_(Cterm) (2 mg/mL) or the 1:1 complex; Zenix SEC 300 column; 20 mM Tris/HCl, 150 mM NaCl, pH 8.0
[3] = target: B2; assay: native gel or EMSA; 1.25 uM Alexa Fluor 488-labeled Codanin1_(Cterm) with 0-20 uM CDIN1 (twofold dilutions); 20 mM Tris/HCl, 150 mM NaCl, 5% glycerol, pH 8.0; 15 min at room temperature; native 10% PAGE, 0.5x TBE, 4 °C; conditions: both partners purified
[4] = target: B1; assay: MST; 75 nM Alexa Fluor 488-labeled Codanin1_(Cterm) with 0-5 uM CDIN1; 20 mM Tris/HCl, 150 mM NaCl, 5% glycerol, pH 8.0; 25 °C; Hill equation fit; apparent KD; conditions: both partners purified
[5] = target: B1; assay: ITC; Codanin1_(Cterm) (110 uM) titrated into CDIN1 (11 uM) in the cell; 15 °C; 20 mM Tris/HCl, 150 mM NaCl, 5% glycerol, pH 8.0; one-site binding model; conditions: both partners purified

B1
stoichiometry N [1]: 1 CDIN1:Codanin1_(Cterm) | stoichiometry N [2]: 2 | stoichiometry N [3]: 1 CDIN1:Codanin1_(Cterm)

B2
Kd [4]: 53 ± 8 nM

B3
Kd [5]: 20 ± 4 nM
